This note sets out measurements from US20060067886A1, “Gastrin receptor-avid peptide conjugates” (priority 1997, published 2006).

The nature of the data set: Biodistribution of radiometal-DOTA-BBN conjugates in CF1 normal mice. Particulars: 1 hour post-injection; for tissue uptake dose at 1 h / dose excreted at 1 h / tissue uptake at 1 h: CF-1, mouse, in vivo, iv, total radioactivity; for tissue uptake dose at 1 h / dose excreted at 1 h: Avg % ID; for dose excreted at 1 h: Urine; for tissue uptake at 1 h: Avg % ID/gm.

In the case of `CSCC[C@H](NC(=O)[C@H](CC(C)C)NC(=O)[C@H](Cc1cnc[nH]1)NC(=O)CNC(=O)[C@@H](NC(=O)[C@H](C)NC(=O)[C@H](Cc1c[nH]c2ccccc12)NC(=O)[C@H](CCC(N)=O)NC(=O)CN1CCN(CC(=O)O)CCN(CC(=O)O)CCN(CC(=O)O)CC1)C(C)C)C(N)=O` [111In-DOTA-0-BBN[7-14]NH2, metal not drawn], the dose excreted at 1 h stood at 96.95 ± 0.37%. In addition, the tissue uptake dose at 1 h (Blood) was 0.22 ± 0.07 %ID. In addition, under “Heart”, the tissue uptake dose at 1 h came out at 0.01 %ID and the tissue uptake at 1 h was found to be 0.05 ± 0.02 %ID/g. For the same compound, for the setting “Kidney”, the tissue uptake dose at 1 h is 0.57 ± 0.02 %ID and the tissue uptake at 1 h is 1.24 ± 0.14 %ID/g. Further, under “Liver”, the tissue uptake dose at 1 h was 0.17 ± 0.02 %ID and the tissue uptake at 1 h came out at 0.09 ± 0.01 %ID/g. Besides, under “Lung”, the tissue uptake dose at 1 h was determined as 0.03 %ID and the tissue uptake at 1 h was found to be 0.13 ± 0.03 %ID/g. In addition, the tissue uptake dose at 1 h (Muscle) amounted to 0.01 %ID. Further, under “Pancreas”, the tissue uptake dose at 1 h is 0.07 ± 0.01 %ID and the tissue uptake at 1 h was determined as 0.2 ± 0.04 %ID/g. Where the note is “Spleen”, the tissue uptake dose at 1 h stood at 0.01 %ID and the tissue uptake at 1 h came out at 0.08 ± 0.02 %ID/g.

In the case of `CSCC[C@H](NC(=O)[C@H](CC(C)C)NC(=O)[C@H](Cc1cnc[nH]1)NC(=O)CNC(=O)[C@@H](NC(=O)[C@H](C)NC(=O)[C@H](Cc1c[nH]c2ccccc12)NC(=O)[C@H](CCC(N)=O)NC(=O)CN1CCN(CC(=O)O)CCN(CC(=O)O)CCN(CC(=O)O)CC1)C(C)C)C(N)=O` [111In-DOTA-0-BBN[7-14]NH2] [metal not drawn], the “Avg % ID, Carcass” value turned out to be 1.78 ± 0.37 % ID; the “Avg % ID, L. Intestine” value was found to be 0.10 ± 0.02 % ID; the “Avg % ID, S. Intestine” value is reported as 0.25 ± 0.04 % ID; the “Avg % ID/gm, Blood” value is listed as 0.10 ± 0.03 % ID/gm. The “Avg % ID/gm, Muscle” value is 0.03 ± 0.02 % ID/gm; the “Avg % ID/gm, S. Intestine” value is given as 0.44 ± 0.64 % ID/gm; the “Avg % ID/gm, Stomach” value came out at 0.06 ± 0.03 % ID/gm.

For the compound `CSCC[C@H](NC(=O)[C@H](CC(C)C)NC(=O)[C@H](Cc1c[nH]cn1)NC(=O)CNC(=O)[C@@H](NC(=O)[C@H](C)NC(=O)[C@H](Cc1c[nH]c2ccccc12)NC(=O)[C@H](CCC(N)=O)NC(=O)CCCCNC(=O)CN1CCN(CC(=O)O)CCN(CC(=O)O)CCN(CC(=O)O)CC1)C(C)C)C(N)=O` [111In-DOTA-5-Ava-BBN[7-14]NH2, metal not drawn], the dose excreted at 1 h stood at 81.3 ± 1.32%. For the same compound, where the note is “Blood”, the tissue uptake dose at 1 h turned out to be 0.45 ± 0.14 %ID and the tissue uptake at 1 h came to 0.2 ± 0.07 %ID/g. Under “Kidney”, the tissue uptake dose at 1 h was determined as 0.75 ± 0.14 %ID and the tissue uptake at 1 h came out at 1.84 ± 0.44 %ID/g. Moreover, under “L. Intestine”, the tissue uptake dose at 1 h amounted to 2.74 ± 0.8 %ID and the tissue uptake at 1 h stood at 3.07 ± 0.86 %ID/g. Also, under “Pancreas”, the tissue uptake dose at 1 h was 5.57 ± 0.99 %ID and the tissue uptake at 1 h worked out at 15.8 ± 2.54 %ID/g.

Turning to `CSCC[C@H](NC(=O)[C@H](CC(C)C)NC(=O)[C@H](Cc1c[nH]cn1)NC(=O)CNC(=O)[C@@H](NC(=O)[C@H](C)NC(=O)[C@H](Cc1c[nH]c2ccccc12)NC(=O)[C@H](CCC(N)=O)NC(=O)CCCCNC(=O)CN1CCN(CC(=O)O)CCN(CC(=O)O)CCN(CC(=O)O)CC1)C(C)C)C(N)=O` [111In-DOTA-5-Ava-BBN[7-14]NH2] [metal not drawn], the “Avg % ID, Carcass” value is 3.15 ± 0.70 % ID; the “Avg % ID, Heart” value came to 0.02 ± 0.01 % ID; the “Avg % ID, Liver” value was 0.26 ± 0.03 % ID; the “Avg % ID, Lung” value is reported as 0.04 ± 0.01 % ID. Moreover, the “Avg % ID, Muscle” value came out at 0.01 ± 0.01 % ID; the “Avg % ID, S. Intestine” value is 0.11 ± 0.04 % ID; the “Avg % ID, Spleen” value is given as 0.11 ± 0.04 % ID; the “Avg % ID, Stomach” value came out at 0.37 ± 0.16 % ID. Also, the “Avg % ID/gm, Heart” value came out at 0.10 ± 0.04 % ID/gm; the “Avg % ID/gm, Liver” value worked out at 0.16 ± 0.02 % ID/gm; the “Avg % ID/gm, Muscle” value is 0.05 ± 0.02 % ID/gm; the “Avg % ID/gm, S. Intestine” value is listed as 3.49 ± 0.87 % ID/gm. Also, the “Avg % ID/gm, Spleen” value was found to be 0.87 ± 0.28 % ID/gm and the “Avg % ID/gm, Stomach” value is 0.71 ± 0.24 % ID/gm.

Consider `CSCC[C@H](NC(=O)[C@H](CC(C)C)NC(=O)[C@H](Cc1c[nH]cn1)NC(=O)CNC(=O)[C@@H](NC(=O)[C@H](C)NC(=O)[C@H](Cc1c[nH]c2ccccc12)NC(=O)[C@H](CCC(N)=O)NC(=O)CCCCCCCCCCNC(=O)CN1CCN(CC(=O)O)CCN(CC(=O)O)CCN(CC(=O)O)CC1)C(C)C)C(N)=O` [111In-DOTA-11-Aun-BBN[7-14]NH2, metal not drawn], for which the dose excreted at 1 h is 53.3 ± 0.9%. Further, the tissue uptake dose at 1 h (Blood) is 0.79 ± 0.2 %ID. Further, the tissue uptake dose at 1 h (Carcass) came to 7.35 ± 1.57 %ID. Also, the tissue uptake dose at 1 h (Kidney) is 1.07 ± 0.17 %ID. Besides, for the setting “L. Intestine”, the tissue uptake dose at 1 h was found to be 5.54 ± 2.42 %ID and the tissue uptake at 1 h stood at 4.34 ± 1.34 %ID/g. In addition, under “Liver”, the tissue uptake dose at 1 h was 2.44 ± 0.5 %ID and the tissue uptake at 1 h was determined as 1.22 ± 0.25 %ID/g. Further, where the note is “Pancreas”, the tissue uptake dose at 1 h was 11.6 ± 1.14 %ID and the tissue uptake at 1 h is 26 ± 3.46 %ID/g. For the same compound, where the note is “S. Intestine”, the tissue uptake dose at 1 h came out at 17.8 ± 1.4 %ID and the tissue uptake at 1 h worked out at 11.1 ± 2.07 %ID/g. Where the note is “Spleen”, the tissue uptake dose at 1 h is 0.19 ± 0.04 %ID and the tissue uptake at 1 h turned out to be 1.15 ± 0.38 %ID/g. Moreover, where the note is “Stomach”, the tissue uptake dose at 1 h is 0.53 ± 0.11 %ID and the tissue uptake at 1 h turned out to be 1.05 ± 0.25 %ID/g.

Take `CSCC[C@H](NC(=O)[C@H](CC(C)C)NC(=O)[C@H](Cc1c[nH]cn1)NC(=O)CNC(=O)[C@@H](NC(=O)[C@H](C)NC(=O)[C@H](Cc1c[nH]c2ccccc12)NC(=O)[C@H](CCC(N)=O)NC(=O)CCCCCCCCCCNC(=O)CN1CCN(CC(=O)O)CCN(CC(=O)O)CCN(CC(=O)O)CC1)C(C)C)C(N)=O` [111In-DOTA-11-Aun-BBN[7-14]NH2] [metal not drawn]: the “Avg % ID, Heart” value is given as 0.02 ± 0.01 % ID; the “Avg % ID, Lung” value is given as 0.08 ± 0.01 % ID; the “Avg % ID, Muscle” value is listed as 0.02 ± 0.01 % ID; the “Avg % ID/gm, Blood” value worked out at 0.34 ± 0.08 % ID/gm. Further, the “Avg % ID/gm, Heart” value worked out at 0.13 ± 0.04 % ID/gm; the “Avg % ID/gm, Kidney” value is 2.06 ± 0.31 % ID/gm; the “Avg % ID/gm, Lung” value stood at 0.26 ± 0.05 % ID/gm; the “Avg % ID/gm, Muscle” value is recorded as 0.09 ± 0.03 % ID/gm.

On to `CSCC[C@H](NC(=O)[C@H](CC(C)C)NC(=O)[C@H](Cc1cnc[nH]1)NC(=O)CNC(=O)[C@@H](NC(=O)[C@H](C)NC(=O)[C@H](Cc1c[nH]c2ccccc12)NC(=O)[C@H](CCC(N)=O)NC(=O)CCNC(=O)CN1CCN(CC(=O)O)CCN(CC(=O)O)CCN(CC(=O)O)CC1)C(C)C)C(N)=O` [111In-DOTA-β-Ala-BBN[7-14]NH2, metal not drawn], for which the dose excreted at 1 h worked out at 92.41 ± 0.9%. Besides, for the setting “Blood”, the tissue uptake dose at 1 h was determined as 0.23 ± 0.1 %ID and the tissue uptake at 1 h stood at 0.11 ± 0.06 %ID/g. Further, under “Carcass”, the tissue uptake dose at 1 h amounted to 2.23 ± 0.36 %ID. For the same compound, where the note is “Kidney”, the tissue uptake dose at 1 h stood at 0.62 ± 0.1 %ID and the tissue uptake at 1 h is 1.4 ± 0.27 %ID/g. Moreover, for the setting “Liver”, the tissue uptake dose at 1 h was found to be 0.17 ± 0.03 %ID and the tissue uptake at 1 h was 0.11 ± 0.02 %ID/g. Besides, the tissue uptake dose at 1 h (Lung) came to 0.03 ± 0.02 %ID. Besides, for the setting “Stomach”, the tissue uptake dose at 1 h was determined as 0.13 ± 0.02 %ID and the tissue uptake at 1 h worked out at 0.3 ± 0.07 %ID/g.

On to `CSCC[C@H](NC(=O)[C@H](CC(C)C)NC(=O)[C@H](Cc1cnc[nH]1)NC(=O)CNC(=O)[C@@H](NC(=O)[C@H](C)NC(=O)[C@H](Cc1c[nH]c2ccccc12)NC(=O)[C@H](CCC(N)=O)NC(=O)CCNC(=O)CN1CCN(CC(=O)O)CCN(CC(=O)O)CCN(CC(=O)O)CC1)C(C)C)C(N)=O` [111In-DOTA-β-Ala-BBN[7-14]NH2] [metal not drawn], for which the “Avg % ID, Heart” value was 0.01 ± 0.01 % ID; the “Avg % ID, L. Intestine” value was found to be 0.90 ± 0.57 % ID; the “Avg % ID, Muscle” value is on record as 0.01 ± 0.01 % ID; the “Avg % ID, Pancreas” value was determined as 1.84 ± 0.35 % ID. The “Avg % ID, S. Intestine” value worked out at 1.57 ± 0.65 % ID; the “Avg % ID, Spleen” value worked out at 0.05 ± 0.00 % ID; the “Avg % ID/gm, Heart” value is 0.06 ± 0.04 % ID/gm; the “Avg % ID/gm, L. Intestine” value was found to be 1.10 ± 0.78 % ID/gm. Further, the “Avg % ID/gm, Muscle” value was determined as 0.03 ± 0.02 % ID/gm; the “Avg % ID/gm, Pancreas” value was 4.92 ± 0.37 % ID/gm; the “Avg % ID/gm, S. Intestine” value was found to be 1.01 ± 0.37 % ID/gm; the “Avg % ID/gm, Spleen” value came out at 0.37 ± 0.06 % ID/gm.

For orientation: tissue uptake means the percentage of the injected dose found per gram of tissue.
